Starred links: 1 amine or outer side, 2 acyl side, 3 side chain; linkers in the order of their positions; H or OH if unused. Non-standard residues stand in square brackets, D forms with d. Groups on a side chain read outwards from the residue. No end group written: not given here. *: point of attachment. C16 diacid = O=C(O)CCCCCCCCCCCCCCC(=O)*; γGlu = O=C(O)[C@H](CCC(=O)[*:2])N[*:1]; Palmitoyl = CCCCCCCCCCCCCCCC(=O)*; AEEA = NCCOCCOCC(=O)O; Aib = CC(C)(N)C(=O)O
T1: CRF1R receptor (anti-target) (UniProt P34998 24-415, limits assumed)
T1 sequence (looked up): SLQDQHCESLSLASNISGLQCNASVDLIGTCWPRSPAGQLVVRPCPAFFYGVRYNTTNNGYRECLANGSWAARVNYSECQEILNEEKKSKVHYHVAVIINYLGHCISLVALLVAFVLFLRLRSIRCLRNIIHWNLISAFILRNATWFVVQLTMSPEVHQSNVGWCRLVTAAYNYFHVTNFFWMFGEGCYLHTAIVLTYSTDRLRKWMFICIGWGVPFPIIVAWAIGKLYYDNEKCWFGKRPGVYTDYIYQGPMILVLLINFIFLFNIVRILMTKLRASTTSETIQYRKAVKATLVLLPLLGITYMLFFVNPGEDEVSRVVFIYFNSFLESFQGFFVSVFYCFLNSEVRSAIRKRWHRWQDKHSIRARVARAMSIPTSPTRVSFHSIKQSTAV

B1: peptide of SEQ ID NO: 200 (peptide)
peptide: IVLSLD[dV]PIKLK([AEEA-AEEA-γGlu-C16 diacid])QILLKQERQKK[Aib]RQKAEKNKQILAQV-NH2
modifications: N-terminus assumed
SMILES: CC[C@H](C)[C@H](N)C(=O)N[C@H](C(=O)N[C@@H](CC(C)C)C(=O)N[C@@H](CO)C(=O)N[C@@H](CC(C)C)C(=O)N[C@@H](CC(=O)O)C(=O)N[C@@H](C(=O)N1CCC[C@H]1C(=O)N[C@H](C(=O)N[C@@H](CCCCN)C(=O)N[C@@H](CC(C)C)C(=O)N[C@@H](CCCCNC(=O)COCCOCCNC(=O)COCCOCCNC(=O)CC[C@H](NC(=O)CCCCCCCCCCCCCCC(=O)O)C(=O)O)C(=O)N[C@@H](CCC(N)=O)C(=O)N[C@H](C(=O)N[C@@H](CC(C)C)C(=O)N[C@@H](CC(C)C)C(=O)N[C@@H](CCCCN)C(=O)N[C@@H](CCC(N)=O)C(=O)N[C@@H](CCC(=O)O)C(=O)N[C@@H](CCCNC(=N)N)C(=O)N[C@@H](CCC(N)=O)C(=O)N[C@@H](CCCCN)C(=O)N[C@@H](CCCCN)C(=O)NC(C)(C)C(=O)N[C@@H](CCCNC(=N)N)C(=O)N[C@@H](CCC(N)=O)C(=O)N[C@@H](CCCCN)C(=O)N[C@@H](C)C(=O)N[C@@H](CCC(=O)O)C(=O)N[C@@H](CCCCN)C(=O)N[C@@H](CC(N)=O)C(=O)N[C@@H](CCCCN)C(=O)N[C@@H](CCC(N)=O)C(=O)N[C@H](C(=O)N[C@@H](CC(C)C)C(=O)N[C@@H](C)C(=O)N[C@@H](CCC(N)=O)C(=O)N[C@H](C(N)=O)C(C)C)[C@@H](C)CC)[C@@H](C)CC)[C@@H](C)CC)C(C)C)C(C)C
B2: peptide of SEQ ID NO: 191 (peptide)
peptide: IVLSLD[dV]PIKLK([γGlu-C16 diacid])QILLKQERQKKQREKAEKNKQILAQV-NH2
modifications: N-terminus assumed
SMILES: CC[C@H](C)[C@H](N)C(=O)N[C@H](C(=O)N[C@@H](CC(C)C)C(=O)N[C@@H](CO)C(=O)N[C@@H](CC(C)C)C(=O)N[C@@H](CC(=O)O)C(=O)N[C@@H](C(=O)N1CCC[C@H]1C(=O)N[C@H](C(=O)N[C@@H](CCCCN)C(=O)N[C@@H](CC(C)C)C(=O)N[C@@H](CCCCNC(=O)CC[C@H](NC(=O)CCCCCCCCCCCCCCC(=O)O)C(=O)O)C(=O)N[C@@H](CCC(N)=O)C(=O)N[C@H](C(=O)N[C@@H](CC(C)C)C(=O)N[C@@H](CC(C)C)C(=O)N[C@@H](CCCCN)C(=O)N[C@@H](CCC(N)=O)C(=O)N[C@@H](CCC(=O)O)C(=O)N[C@@H](CCCNC(=N)N)C(=O)N[C@@H](CCC(N)=O)C(=O)N[C@@H](CCCCN)C(=O)N[C@@H](CCCCN)C(=O)N[C@@H](CCC(N)=O)C(=O)N[C@@H](CCCNC(=N)N)C(=O)N[C@@H](CCC(=O)O)C(=O)N[C@@H](CCCCN)C(=O)N[C@@H](C)C(=O)N[C@@H](CCC(=O)O)C(=O)N[C@@H](CCCCN)C(=O)N[C@@H](CC(N)=O)C(=O)N[C@@H](CCCCN)C(=O)N[C@@H](CCC(N)=O)C(=O)N[C@H](C(=O)N[C@@H](CC(C)C)C(=O)N[C@@H](C)C(=O)N[C@@H](CCC(N)=O)C(=O)N[C@H](C(N)=O)C(C)C)[C@@H](C)CC)[C@@H](C)CC)[C@@H](C)CC)C(C)C)C(C)C
B3: peptide of SEQ ID NO: 199 (peptide)
peptide: IVLSLD[dV]PIKLK([AEEA-AEEA-γGlu-γGlu-C16 diacid])QILLKQERQK[Aib]QREQAEKNKQILAQV-NH2
modifications: N-terminus assumed
SMILES: CC[C@H](C)[C@H](N)C(=O)N[C@H](C(=O)N[C@@H](CC(C)C)C(=O)N[C@@H](CO)C(=O)N[C@@H](CC(C)C)C(=O)N[C@@H](CC(=O)O)C(=O)N[C@@H](C(=O)N1CCC[C@H]1C(=O)N[C@H](C(=O)N[C@@H](CCCCN)C(=O)N[C@@H](CC(C)C)C(=O)N[C@@H](CCCCNC(=O)COCCOCCNC(=O)COCCOCCNC(=O)CC[C@H](NC(=O)CC[C@H](NC(=O)CCCCCCCCCCCCCCC(=O)O)C(=O)O)C(=O)O)C(=O)N[C@@H](CCC(N)=O)C(=O)N[C@H](C(=O)N[C@@H](CC(C)C)C(=O)N[C@@H](CC(C)C)C(=O)N[C@@H](CCCCN)C(=O)N[C@@H](CCC(N)=O)C(=O)N[C@@H](CCC(=O)O)C(=O)N[C@@H](CCCNC(=N)N)C(=O)N[C@@H](CCC(N)=O)C(=O)N[C@@H](CCCCN)C(=O)NC(C)(C)C(=O)N[C@@H](CCC(N)=O)C(=O)N[C@@H](CCCNC(=N)N)C(=O)N[C@@H](CCC(=O)O)C(=O)N[C@@H](CCC(N)=O)C(=O)N[C@@H](C)C(=O)N[C@@H](CCC(=O)O)C(=O)N[C@@H](CCCCN)C(=O)N[C@@H](CC(N)=O)C(=O)N[C@@H](CCCCN)C(=O)N[C@@H](CCC(N)=O)C(=O)N[C@H](C(=O)N[C@@H](CC(C)C)C(=O)N[C@@H](C)C(=O)N[C@@H](CCC(N)=O)C(=O)N[C@H](C(N)=O)C(C)C)[C@@H](C)CC)[C@@H](C)CC)[C@@H](C)CC)C(C)C)C(C)C
B4: peptide of SEQ ID NO: 194 (peptide)
peptide: IVLSLD[dV]PIGLK([γGlu-C16 diacid])QILLKQERQKK[Aib]REQAETNKQILAQV-NH2
modifications: N-terminus assumed
SMILES: CC[C@H](C)[C@H](N)C(=O)N[C@H](C(=O)N[C@@H](CC(C)C)C(=O)N[C@@H](CO)C(=O)N[C@@H](CC(C)C)C(=O)N[C@@H](CC(=O)O)C(=O)N[C@@H](C(=O)N1CCC[C@H]1C(=O)N[C@H](C(=O)NCC(=O)N[C@@H](CC(C)C)C(=O)N[C@@H](CCCCNC(=O)CC[C@H](NC(=O)CCCCCCCCCCCCCCC(=O)O)C(=O)O)C(=O)N[C@@H](CCC(N)=O)C(=O)N[C@H](C(=O)N[C@@H](CC(C)C)C(=O)N[C@@H](CC(C)C)C(=O)N[C@@H](CCCCN)C(=O)N[C@@H](CCC(N)=O)C(=O)N[C@@H](CCC(=O)O)C(=O)N[C@@H](CCCNC(=N)N)C(=O)N[C@@H](CCC(N)=O)C(=O)N[C@@H](CCCCN)C(=O)N[C@@H](CCCCN)C(=O)NC(C)(C)C(=O)N[C@@H](CCCNC(=N)N)C(=O)N[C@@H](CCC(=O)O)C(=O)N[C@@H](CCC(N)=O)C(=O)N[C@@H](C)C(=O)N[C@@H](CCC(=O)O)C(=O)N[C@H](C(=O)N[C@@H](CC(N)=O)C(=O)N[C@@H](CCCCN)C(=O)N[C@@H](CCC(N)=O)C(=O)N[C@H](C(=O)N[C@@H](CC(C)C)C(=O)N[C@@H](C)C(=O)N[C@@H](CCC(N)=O)C(=O)N[C@H](C(N)=O)C(C)C)[C@@H](C)CC)[C@@H](C)O)[C@@H](C)CC)[C@@H](C)CC)C(C)C)C(C)C
B5: peptide of SEQ ID NO: 217 (peptide)
peptide: IVLSLD[dV]PIGLK([AEEA-AEEA-γGlu-γGlu-Palmitoyl])QILLKQERQKK[Aib]REQAETNKQILAQV-NH2
modifications: N-terminus assumed
SMILES: CCCCCCCCCCCCCCCC(=O)N[C@@H](CCC(=O)N[C@@H](CCC(=O)NCCOCCOCC(=O)NCCOCCOCC(=O)NCCCC[C@H](NC(=O)[C@H](CC(C)C)NC(=O)CNC(=O)[C@@H](NC(=O)[C@@H]1CCCN1C(=O)[C@H](NC(=O)[C@H](CC(=O)O)NC(=O)[C@H](CC(C)C)NC(=O)[C@H](CO)NC(=O)[C@H](CC(C)C)NC(=O)[C@@H](NC(=O)[C@@H](N)[C@@H](C)CC)C(C)C)C(C)C)[C@@H](C)CC)C(=O)N[C@@H](CCC(N)=O)C(=O)N[C@H](C(=O)N[C@@H](CC(C)C)C(=O)N[C@@H](CC(C)C)C(=O)N[C@@H](CCCCN)C(=O)N[C@@H](CCC(N)=O)C(=O)N[C@@H](CCC(=O)O)C(=O)N[C@@H](CCCNC(=N)N)C(=O)N[C@@H](CCC(N)=O)C(=O)N[C@@H](CCCCN)C(=O)N[C@@H](CCCCN)C(=O)NC(C)(C)C(=O)N[C@@H](CCCNC(=N)N)C(=O)N[C@@H](CCC(=O)O)C(=O)N[C@@H](CCC(N)=O)C(=O)N[C@@H](C)C(=O)N[C@@H](CCC(=O)O)C(=O)N[C@H](C(=O)N[C@@H](CC(N)=O)C(=O)N[C@@H](CCCCN)C(=O)N[C@@H](CCC(N)=O)C(=O)N[C@H](C(=O)N[C@@H](CC(C)C)C(=O)N[C@@H](C)C(=O)N[C@@H](CCC(N)=O)C(=O)N[C@H](C(N)=O)C(C)C)[C@@H](C)CC)[C@@H](C)O)[C@@H](C)CC)C(=O)O)C(=O)O
B6: peptide of SEQ ID NO: 198 (peptide)
peptide: IVLSLD[dV]PIKLK([AEEA-AEEA-γGlu-C16 diacid])QILLKQERQK[Aib]QREQAEKNKQILAQV-NH2
modifications: N-terminus assumed
SMILES: CC[C@H](C)[C@H](N)C(=O)N[C@H](C(=O)N[C@@H](CC(C)C)C(=O)N[C@@H](CO)C(=O)N[C@@H](CC(C)C)C(=O)N[C@@H](CC(=O)O)C(=O)N[C@@H](C(=O)N1CCC[C@H]1C(=O)N[C@H](C(=O)N[C@@H](CCCCN)C(=O)N[C@@H](CC(C)C)C(=O)N[C@@H](CCCCNC(=O)COCCOCCNC(=O)COCCOCCNC(=O)CC[C@H](NC(=O)CCCCCCCCCCCCCCC(=O)O)C(=O)O)C(=O)N[C@@H](CCC(N)=O)C(=O)N[C@H](C(=O)N[C@@H](CC(C)C)C(=O)N[C@@H](CC(C)C)C(=O)N[C@@H](CCCCN)C(=O)N[C@@H](CCC(N)=O)C(=O)N[C@@H](CCC(=O)O)C(=O)N[C@@H](CCCNC(=N)N)C(=O)N[C@@H](CCC(N)=O)C(=O)N[C@@H](CCCCN)C(=O)NC(C)(C)C(=O)N[C@@H](CCC(N)=O)C(=O)N[C@@H](CCCNC(=N)N)C(=O)N[C@@H](CCC(=O)O)C(=O)N[C@@H](CCC(N)=O)C(=O)N[C@@H](C)C(=O)N[C@@H](CCC(=O)O)C(=O)N[C@@H](CCCCN)C(=O)N[C@@H](CC(N)=O)C(=O)N[C@@H](CCCCN)C(=O)N[C@@H](CCC(N)=O)C(=O)N[C@H](C(=O)N[C@@H](CC(C)C)C(=O)N[C@@H](C)C(=O)N[C@@H](CCC(N)=O)C(=O)N[C@H](C(N)=O)C(C)C)[C@@H](C)CC)[C@@H](C)CC)[C@@H](C)CC)C(C)C)C(C)C

Tests used:
[1] = target: human corticotropin-releasing factor 2α (CRF2α receptor) (human), Q13324; assay: cell-based or functional assay
human corticotropin-releasing factor 2α (CRF2α receptor) (human), Q13324, sequence (Q13324 20-411): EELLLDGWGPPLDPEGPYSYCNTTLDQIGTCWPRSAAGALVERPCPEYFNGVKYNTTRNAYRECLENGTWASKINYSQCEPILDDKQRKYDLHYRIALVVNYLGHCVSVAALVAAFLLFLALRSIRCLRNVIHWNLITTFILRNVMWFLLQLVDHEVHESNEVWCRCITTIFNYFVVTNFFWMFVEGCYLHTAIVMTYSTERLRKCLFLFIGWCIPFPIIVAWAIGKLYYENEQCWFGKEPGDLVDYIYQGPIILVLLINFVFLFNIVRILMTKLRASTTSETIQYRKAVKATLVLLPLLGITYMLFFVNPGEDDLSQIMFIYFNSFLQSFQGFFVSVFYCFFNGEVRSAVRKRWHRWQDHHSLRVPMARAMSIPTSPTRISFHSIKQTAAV

[2] = target: T1, CRF1R receptor (anti-target); assay: cell-based or functional assay

Binder | EC50 [nM], 0% HSA (cAMP, HTRF) [1] | EC50 [nM] 0% HSA (cAMP, HTRF) [2] | Emax (%) (100% = Sauvagine at 100 nM) [2]
B1 | 8.7 nM | > 100 nM | 1.9%
B2 | 2.68 nM | > 100 nM | 12.5%
B3 | 1.39 nM | > 100 nM | -2.9%
B4 | 0.11 nM | > 100 nM | 21.6%
B5 | 0.16 nM |  | 
B6 | 0.49 nM | > 100 nM | 1.4%
